Test results taken from patent US20230322924A1 (Janssen / Centocor, published 2023).

How the values were obtained:
[1] = molecular target: T1, human PSMA on LNCaP cells (human, UniProt Q04609 1-750); experiment: flow cytometry, Fab supernatant, LNCaP cells
T1 construct: PSMA of the LNCaP prostate cancer cell line itself
Experimental: (§1) A cell-based binding assay was designed to assess the binding capabilities of individual Fab-his fusions from E. coli supernatants to PSMA-expressing cells. Individual Fab clones were isolated from the round 3 output of all panning experiments following pIX excision. Fab clones were tested for binding to chimp and cyno PSMA expressing HEK cells, as well as to human PSMA on LNCaP cells. Briefly, PSMA expressing cells were aliquoted into a V-bottom plate (CoStar 3357) at a density of 200,000 per well and incubated with (100 μl) supernatants expressing Fab fragments for 1 hour on ice. Cells were washed twice with PBS containing 2% FBS, and stained with a mouse anti-human kappa-RPE antibody (Life Technologies cat #MH10514) for 1 hour on ice. Cells were washed twice with PBS containing 2% FBS and resuspended in […] of the same wash buffer. Plates were read on a BD FACS Array flow cytometer. FACS data was analyzed in FlowJo software by live gating the healthy population of cells using forward scatter and side scatter, and then analyzing the cells within this gate for PE staining. Mean fluorescence intensity (MFI) was calculated and exported into Microsoft Excel. […] Fabs were sequenced and moved forward for cloning into mammalian expression vector for rescreening. True positives were selected from the binding of mammalian cell expressed Fab supernatants to PSMA-expressing cell lines.
(§2) Confirmation of mammalian expressed Fab supernatants was performed using the whole cell binding assay described previously. Binding of Fabs to human PSMA (LNCaP), chimpanzee, and cynomolgous monkey cells was tested, as well as counter screening for no binding to the parental HEK cell line.

[2] = molecular target: T2, chimpanzee PSMA, full length, on HEK293F cells (Pan troglodytes (chimpanzee)); experiment: flow cytometry, Fab supernatant, chimp PSMA HEK cells
T2 construct: stably transfected HEK293F cells; also called chimp PSMA; chimp-PSMA HEK
T2 chain: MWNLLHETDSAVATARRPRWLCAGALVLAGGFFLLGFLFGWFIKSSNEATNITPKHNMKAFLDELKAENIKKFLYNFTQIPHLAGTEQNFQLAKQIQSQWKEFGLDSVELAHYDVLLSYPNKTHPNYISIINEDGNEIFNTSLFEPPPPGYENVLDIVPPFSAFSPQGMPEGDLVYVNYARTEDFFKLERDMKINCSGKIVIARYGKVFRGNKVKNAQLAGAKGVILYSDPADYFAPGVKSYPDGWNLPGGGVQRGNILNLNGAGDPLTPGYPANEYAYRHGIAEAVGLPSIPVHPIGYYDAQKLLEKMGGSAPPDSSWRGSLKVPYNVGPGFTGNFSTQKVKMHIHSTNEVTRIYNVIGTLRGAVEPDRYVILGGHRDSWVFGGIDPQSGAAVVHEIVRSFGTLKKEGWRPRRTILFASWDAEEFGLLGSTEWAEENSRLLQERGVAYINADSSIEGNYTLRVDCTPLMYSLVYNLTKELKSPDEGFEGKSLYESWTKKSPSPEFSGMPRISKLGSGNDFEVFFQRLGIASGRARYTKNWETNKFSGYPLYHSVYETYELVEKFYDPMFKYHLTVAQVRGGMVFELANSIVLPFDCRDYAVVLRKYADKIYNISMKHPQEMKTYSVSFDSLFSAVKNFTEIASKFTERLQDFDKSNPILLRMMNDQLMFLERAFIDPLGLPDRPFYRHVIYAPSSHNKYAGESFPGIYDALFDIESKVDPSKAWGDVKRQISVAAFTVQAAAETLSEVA
Experimental: as §1, with “Individual” for “A cell-based binding assay was designed to assess the binding capabilities of individual Fab-his fusions from E. coli supernatants to PSMA-expressing cells. Individual”
as §2

[3] = molecular target: T3, Cynomolgous monkey PSMA, full length, on HEK293F cells (Macaca fascicularis (cynomolgus monkey)); experiment: flow cytometry, Fab supernatant, cyno PSMA HEK cells
T3 construct: stably transfected HEK293F cells; also called cyno PSMA; Cyno-PSMA HEK
T3 chain: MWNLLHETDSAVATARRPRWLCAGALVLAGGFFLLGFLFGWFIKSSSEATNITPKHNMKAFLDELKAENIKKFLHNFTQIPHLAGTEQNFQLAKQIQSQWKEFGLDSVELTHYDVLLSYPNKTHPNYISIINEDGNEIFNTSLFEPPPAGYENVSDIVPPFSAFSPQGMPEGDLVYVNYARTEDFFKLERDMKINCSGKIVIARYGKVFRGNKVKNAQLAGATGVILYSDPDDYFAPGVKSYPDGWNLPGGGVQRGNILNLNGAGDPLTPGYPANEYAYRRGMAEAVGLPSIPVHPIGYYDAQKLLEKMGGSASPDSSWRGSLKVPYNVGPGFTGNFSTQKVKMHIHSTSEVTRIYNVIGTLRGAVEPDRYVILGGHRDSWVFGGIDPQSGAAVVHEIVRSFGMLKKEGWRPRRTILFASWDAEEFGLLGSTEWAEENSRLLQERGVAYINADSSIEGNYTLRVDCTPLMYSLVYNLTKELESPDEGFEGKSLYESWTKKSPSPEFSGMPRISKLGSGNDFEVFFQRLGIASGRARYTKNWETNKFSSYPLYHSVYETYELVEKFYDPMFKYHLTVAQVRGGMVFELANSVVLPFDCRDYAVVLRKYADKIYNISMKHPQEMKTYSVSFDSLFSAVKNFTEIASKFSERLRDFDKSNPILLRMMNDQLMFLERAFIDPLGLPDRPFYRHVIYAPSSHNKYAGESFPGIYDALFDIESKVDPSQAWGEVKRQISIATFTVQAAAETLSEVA
Experimental: as §1, with “Individual” for “A cell-based binding assay was designed to assess the binding capabilities of individual Fab-his fusions from E. coli supernatants to PSMA-expressing cells. Individual”
as §2

Human CD33 full length = Human CD33 full length (human, UniProt P20138 18-364); experiment: cell-based or functional assay
Sequence of Human CD33 full length (P20138 18-364 limits assumed): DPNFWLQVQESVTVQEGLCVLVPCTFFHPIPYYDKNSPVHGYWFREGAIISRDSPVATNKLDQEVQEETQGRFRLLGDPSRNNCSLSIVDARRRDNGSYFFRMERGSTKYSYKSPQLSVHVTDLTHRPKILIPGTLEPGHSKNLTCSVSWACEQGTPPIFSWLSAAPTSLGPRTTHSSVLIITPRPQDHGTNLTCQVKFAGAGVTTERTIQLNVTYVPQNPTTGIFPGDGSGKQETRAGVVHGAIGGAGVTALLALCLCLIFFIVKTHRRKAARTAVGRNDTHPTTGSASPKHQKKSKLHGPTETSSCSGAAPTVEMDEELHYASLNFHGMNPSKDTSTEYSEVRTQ

T1 sequence (Q04609 whole entry): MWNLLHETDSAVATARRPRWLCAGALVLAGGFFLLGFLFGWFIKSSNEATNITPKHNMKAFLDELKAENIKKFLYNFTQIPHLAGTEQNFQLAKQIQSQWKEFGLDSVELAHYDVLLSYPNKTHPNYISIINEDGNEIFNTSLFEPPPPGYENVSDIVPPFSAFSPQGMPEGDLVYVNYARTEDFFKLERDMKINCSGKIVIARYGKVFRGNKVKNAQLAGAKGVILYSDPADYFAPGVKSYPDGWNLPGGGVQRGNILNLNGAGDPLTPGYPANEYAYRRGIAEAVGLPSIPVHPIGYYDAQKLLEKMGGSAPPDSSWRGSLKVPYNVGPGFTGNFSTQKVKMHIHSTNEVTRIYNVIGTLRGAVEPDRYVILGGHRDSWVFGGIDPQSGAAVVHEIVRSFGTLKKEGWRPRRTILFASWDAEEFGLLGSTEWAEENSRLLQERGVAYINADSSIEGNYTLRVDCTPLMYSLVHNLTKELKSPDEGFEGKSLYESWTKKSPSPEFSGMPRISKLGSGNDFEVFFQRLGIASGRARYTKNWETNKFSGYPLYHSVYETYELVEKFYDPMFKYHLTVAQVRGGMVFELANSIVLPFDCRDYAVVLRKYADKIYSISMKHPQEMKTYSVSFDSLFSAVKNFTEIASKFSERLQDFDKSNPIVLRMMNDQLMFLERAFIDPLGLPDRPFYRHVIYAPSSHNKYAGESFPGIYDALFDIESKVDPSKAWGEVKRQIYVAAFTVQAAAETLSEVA

B1: PSMB84 (Fab, V domains shown)
VH: EVQLLESGGGLVQPGGSLRLSCAASGFTFDSDWMSWVRQAPGKGLEWVSAISGNGGSTEYADSVKGRFTISRDNSKNTLYLQMNSLRAEDTAVYYCARDPYYYYDGDSYYGMDVWGQGTLVTVSS
VL: not shown
notes: mammalian-expressed Fab supernatant (huG1 Fab and human kappa vectors); also called PSMM85
Geo-MFI [1]: 192
Geo-MFI [2]: 729
Geo-MFI [3]: 750

B2: PSMB80 (Fab, V domains shown)
VH: QVQLVQSGAEVKKPGSSVKVSCKASGGTFDDYAISWVRQAPGQGLEWMGRIDPIEGTANYAQKFQGRVTITADESTSTAYMELSSLRSEDTAVYYCARDRYYYDGVYWYSDYFDYWGQGTLVTVS
VL: not shown
notes: mammalian-expressed Fab supernatant (huG1 Fab and human kappa vectors); also called PSMM81
Geo-MFI [1]: 20.9
Geo-MFI [2]: 18.6
Geo-MFI [3]: 19.6

B3: PSMB86 (Fab, V domains shown)
VH: QVQLVQSGAEVKKPGSSVKVSCKASGGTFKSYDISWVRQAPGQGLEWMGGIIPIEGTANYAQKFQGRVTITADESTSTAYMELSSLRSEDTAVYYCARDYPAGYGFDYWGQGTLVTVSS
VL: not shown
notes: mammalian-expressed Fab supernatant (huG1 Fab and human kappa vectors); also called PSMM87
Geo-MFI [1]: 31.7
Geo-MFI [2]: 176
Geo-MFI [3]: 224

B4: PSMB51 (Fab, V domains shown)
VH: QVQLVQSGAEVKKPGSSVKVSCKASGGTFSSYAISWVRQAPGQGLEWMGWIIPYNGNANYAQKFQGRVTITADESTSTAYMELSSLRSEDTAVYYCARVNSAALVWERLDYWGQGTLVTVSS
VL: DIQMTQSPSSLSASVGDRVTITCRASQSIDRWLNWYQQKPGKAPKLLIYAASSLQSGVPSRFSGSGSGTDFTLTISSLQPEDFATYYCQQSPRYPLTFGQGTKVEIK
notes: mammalian-expressed Fab supernatant (huG1 Fab and human kappa vectors); also called PSMM52
Geo-MFI [1]: 41.5
Geo-MFI [2]: 231
Geo-MFI [3]: 285

B5: PSMB109 (Fab, V domains shown)
VH: QVQLVQSGAEVKKPGSSVKVSCKASGGTFSSYAISWVRQAPGQGLEWMGWISPYNGNANYAQKFQGRVTITADESTSTAYMELSSLRSEDTAVYYCARVNSAALVWERLDYWGQGTLVTVSS
VL: DIQMTQSPSSLSASVGDRVTITCRASQSIDRWLNWYQQKPGKAPKLLIYAASSLQSGVPSRFSGSGSGTDFTLTISSLQPEDFATYYCQQSPRYPLTFGQGTKVEIK
notes: mammalian-expressed Fab supernatant (huG1 Fab and human kappa vectors); also called PSMM110
Geo-MFI [1]: 34.9
Geo-MFI [2]: 326
Geo-MFI [3]: 321

B6: PSMB49 (Fab, V domains shown)
VH: QVQLVQSGAEVKKPGSSVKVSCKASGGTFSSYAISWVRQAPGQGLEWMGGIIPIFGTANYAQKFQGRVTITADESTSTAYMELSSLRSEDTAVYYCARASRVWHASYGYLDYWGQGTLVTVSS
VL: EIVLTQSPATLSLSPGERATLSCRASQSVSKWLAWYQQKPGQAPRLLIYDASNRATGIPARFSGSGSGTDFTLTISSLEPEDFAVYYCQQRFTAPWTFGQGTKVEIK
notes: mammalian-expressed Fab supernatant (huG1 Fab and human kappa vectors); also called PSMM50
Geo-MFI [1]: 3.22
Geo-MFI [2]: 22
Geo-MFI [3]: 51.6

B7: PSMB55 (Fab, V domains shown)
VH: EVQLVQSGAEVKKPGESLKISCKGSGYSFTSYWIGWVRQMPGKGLEWMGIIYPGDSDTRYSPSFQGQVTISADKSISTAYLQWSSLKASDTAMYYCARGLPIWYLDYWGQGTLVTVSS
VL: EIVLTQSPATLSLSPGERATLSCRASQSVASDLAWYQQKPGQAPRLLIYFASNRATGIPARFSGSGSGTDFTLTISSLEPEDFAVYYCQQSITWPFTFGQGTKVEIK
notes: mammalian-expressed Fab supernatant (huG1 Fab and human kappa vectors); also called PSMM56
Geo-MFI [1]: 17.2
Geo-MFI [2]: 180
Geo-MFI [3]: 226

B8: PSMB58 (Fab, V domains shown)
VH: EVQLVQSGAEVKKPGESLKISCKGSGYSFTSYWISWVRQMPGKGLEWMGIIYPGDSYTRYSPSFQGQVTISADKSISTAYLQWSSLKASDTAMYYCARDYEWELFDSRLDYWGQGTLVTVSS
VL: not shown
notes: mammalian-expressed Fab supernatant (huG1 Fab and human kappa vectors); also called PSMM59
Geo-MFI [1]: 25.3
Geo-MFI [2]: 192
Geo-MFI [3]: 121

B9: PSMB56 (Fab, V domains shown)
VH: QVQLVQSGAEVKKPGSSVKVSCKASGGTFSSYAISWVRQAPGQGLEWMGWISPYNGNANYAQKFQGRVTITADESTSTAYMELSSLRSEDTAVYYCARDSDRSYNLDYWGQGTLVTVSS
VL: not shown
notes: mammalian-expressed Fab supernatant (huG1 Fab and human kappa vectors); also called PSMM57
Geo-MFI [1]: 24.5
Geo-MFI [2]: 34.7
Geo-MFI [3]: 95.6

B10: C3CB11 (bispecific antibody, IgG4, V domains shown)
VH 1: QVQLVESGGGVVQPGRSLRLSCVASGFTFSSYGMHWVRQAPGKGLEWVAVISYDGSNKYYADSVKGRFTISRDNSKNTLYLQMNSLRAEGTAVYYCAKDFRSFDWLPPDSASYHGMDVWGQGTTVTVSS
VL 1: SYELTQPPSVSVSPGQTASITCSGDKLGDKYACWYQQKPGQSPVLVIYQDGKRPSGIPERFSGSNFGNKATLTISGTQAMDEADYYCQAWDRNTVVFGGGTKLTVL
VH 2: EVQLVESGGGLVQPGGSLRLSCAASGFTFNTYAMNWVRQAPGKGLEWVARIRSKYNNYATYYAASVKGRFTISRDDSKNSLYLQMNSLKTEDTAVYYCARHGNFGNSYVSWFAYWGQGTLVTVSS
VL 2: QTVVTQEPSLTVSPGGTVTLTCRSSTGAVTTSNYANWVQQKPGQAPRGLIGGTNKRAPGTPARFSGSLLGGKAALTLSGVQPEDEAEYYCALWYSNLWVFGGGTKLTVL
Primary AML Cell Killing EC50 (Human CD33 full length): 3.96 nM

B11: PSMB18 (Fab, V domains shown)
VH: EVQLVQSGAEVKKPGESLKISCKGSGYSFTSYWIGWVRQMPGKGLEWMGIIYPGDSDTRYSPSFQGQVTISADKSISTAYLQWSSLKASDTAMYYCARAYHYSKGLDYWGQGTLVTVSS
VL: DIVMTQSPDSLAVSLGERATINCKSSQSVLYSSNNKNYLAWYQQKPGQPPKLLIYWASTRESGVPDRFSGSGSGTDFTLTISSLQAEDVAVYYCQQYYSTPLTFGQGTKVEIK
notes: mammalian-expressed Fab supernatant (huG1 Fab and human kappa vectors); also called PSMM18
Geo-MFI [2]: 439
Geo-MFI [3]: 696

B12: PSMB25 (Fab, V domains shown)
VH: EVQLVQSGAEVKKPGESLKISCKGSGYSFTSYWIGWVRQMPGKGLEWMGIIYPGDSDTRYSPSFQGQVTISADKSISTAYLQWSSLKASDTAMYYCARGWAYDRGLDYWGQGTLVTVSS
VL: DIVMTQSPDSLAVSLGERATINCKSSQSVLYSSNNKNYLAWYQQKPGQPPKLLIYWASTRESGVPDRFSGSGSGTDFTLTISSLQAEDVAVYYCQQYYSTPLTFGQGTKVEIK
notes: mammalian-expressed Fab supernatant (huG1 Fab and human kappa vectors); also called PSMM25
Geo-MFI [1]: 16.9
Geo-MFI [2]: 11.3
Geo-MFI [3]: 15.2
